# Measured values as given in US10253076B2, “Peptides and combination of peptides for use in immunotherapy against ovarian cancer and other cancers” (immatics biotechnologies GmbH, priority 2015, dated 2019).
# Columns and labels:
# HLA-A*02:01 = HLA-A*02:01 (Homo sapiens, UniProt P04439, D140Y/D185E/D98H/E176V/E277Q/G131W/G231S/I119V/I121R/I166T/I218V/L300P/L318F/N151K/N90K/P208A/P217A/Q86G/Q94H/R138H/R169H/T345S); experiment: MHC binding assay (UV-ligand exchange, beta2m ELISA, peptide exchange yield); details: binding of HLA-class I restricted peptides to HLA-A*02:01, ranged by peptide exchange yield (UV-ligand exchange, β2m ELISA)
# How it was run: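 Peptide–HLA-A*02:01 complexes made by UV-mediated exchange of a photocleavable peptide with the test peptide. Exchange products diluted 100-fold on streptavidin-coated plates, 1 h at 37°C, then HRP anti-β2m 1 h at 37°C; TMB read at 450 nm to give exchange yield.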
# CD8+ T cells = experiment: In vitro immunogenicity: T-cell priming with aAPCs loaded with peptide/MHC and anti-CD28, pMHC multimer readout; type: cell-based, human; details: for Wells positive [%]: HLA-A*02 restricted peptides; for wells: percentage of positive wells
# Experimental: In an aspect, the peptides are pre-screened for immunogenicity before being included in the warehouse. By way of example, and not limitation, the immunogenicity of the peptides included in the warehouse is determined by a method comprising in vitro T-cell priming through repeated stimulations of CD8+ T cells from healthy donors with artificial antigen presenting cells loaded with peptide/MHC complexes and anti-CD28 antibody.
# In order to obtain information regarding the immunogenicity of the TUMAPs of the present invention, the inventors performed investigations using an in vitro T-cell priming assay based on repeated stimulations of CD8+ T cells with artificial antigen presenting cells (aAPCs) loaded with peptide/MHC complexes and anti-CD28 antibody.
# In order to perform in vitro stimulations by artificial antigen presenting cells loaded with peptide-MHC complex (pMHC) and anti-CD28 antibody, the inventors first isolated CD8+ T cells from fresh HLA-A*02 leukapheresis products via positive selection using CD8 microbeads (Miltenyi Biotec, Bergisch-Gladbach, Germany) of healthy donors obtained from the University clinics Mannheim, Germany, after informed consent.
# PBMCs and isolated CD8+ lymphocytes were incubated in T-cell medium (TCM) until use consisting of RPMI-Glutamax (Invitrogen, Karlsruhe, Germany) supplemented with 10% heat inactivated human AB serum (PAN-Biotech, Aidenbach, Germany), 100 U/ml Penicillin/100 μg/ml Streptomycin (Cambrex, Cologne, Germany), 1 mM sodium pyruvate (CC Pro, Oberdorla, Germany), 20 μg/ml Gentamycin (Cambrex). 2.5 ng/ml IL-7 (PromoCell, Heidelberg, Germany) and 10 U/ml IL-2 (Novartis Pharma, Nürnberg, Germany) were also added to the TCM at this step.
# Generation of pMHC/anti-CD28 coated beads, T-cell stimulations and readout was performed in a highly defined in vitro system using four different pMHC molecules per stimulation condition and 8 different pMHC molecules per readout condition.
# The purified co-stimulatory mouse IgG2a anti human CD28 Ab 9.3 (Jung et al., 1987) was chemically biotinylated using Sulfo-N-hydroxysuccinimidobiotin as recommended by the manufacturer (Perbio, Bonn, Germany). Beads used were 5.6 μm diameter streptavidin coated polystyrene particles (Bangs Laboratories, Illinois, USA).
# pMHC used for positive and negative control stimulations were A*0201/MLA-001 (peptide […] (SEQ ID NO. 664) from modified Melan-A/MART-1) and A*0201/DDX5-001 ([…] from DDX5, SEQ ID NO. 665), respectively.
# 800.000 beads/200 μl were coated in 96-well plates in the presence of 4×12.5 ng different biotin-pMHC, washed and 600 ng biotin anti-CD28 were added subsequently in a volume of 200 μl. Stimulations were initiated in 96-well plates by co-incubating […] CD8+ T cells with 2×10^5 washed coated beads in 200 μl TCM supplemented with 5 ng/ml IL-12 (PromoCell) for 3 days at 37° C. Half of the medium was then exchanged by fresh TCM supplemented with 80 U/ml IL-2 and incubating was continued for 4 days at 37° C. This stimulation cycle was performed for a total of three times. For the pMHC multimer readout using 8 different pMHC molecules per condition, a two-dimensional combinatorial coding approach was used as previously described (Andersen et al., 2012) with minor modifications encompassing coupling to 5 different fluorochromes. Finally, multimeric analyses were performed by staining the cells with Live/dead near IR dye (Invitrogen, Karlsruhe, Germany), CD8-FITC antibody clone SK1 (BD, Heidelberg, Germany) and fluorescent pMHC multimers. For analysis, a BD LSRII SORP cytometer equipped with appropriate lasers and filters was used. Peptide specific cells were calculated as percentage of total CD8+ cells. Evaluation of multimeric analysis was done using the FlowJo software (Tree Star, Oregon, USA). In vitro priming of specific multimer+ CD8+ lymphocytes was detected by comparing to negative control stimulations. […]
Substance,Peptide exchange (HLA-A*02:01),Wells positive [%] (CD8+ T cells),wells (CD8+ T cells; HLA class I peptides),"donors (CD8+ T cells; HLA class I peptides, percentage of positive donors)"
79 (SLFIGEKAVLL; listed as Homo sapiens) [compound 79],″+++″ (≥50% = +++),″+″ (<20% = +),,
11 (KIFEMLEGV; listed as Homo sapiens) [compound 11],″+++″ (≥50% = +++),″+″ (<20% = +),,
662 (KIQEILTQV; listed as Homo sapiens) [compound 662],,,+ (<20% = +),
663 (KIQEMQHFL; listed as Homo sapiens) [compound 663],,,+ (<20% = +),
56 (KLYEGIPVLL; listed as Homo sapiens) [compound 56],″++++″ (≥75% = ++++),″+″ (<20% = +),,
511 (FLDPYCSASV; listed as Homo sapiens) [compound 511],″++″ (≥20% = ++),″+″ (<20% = +),,
460 (AMLEKNYKL; listed as Homo sapiens) [compound 460],″++++″ (≥75% = ++++),″+″ (<20% = +),,
659 (ILFPDIIARA; listed as Homo sapiens) [compound 659],,,+ (<20% = +),
319 (SLEPQIQPV; listed as Homo sapiens) [compound 319],″++″ (≥20% = ++),″+″ (<20% = +),,
283 (ALYIGDGYVIHLA; listed as Homo sapiens) [compound 283],″+++″ (≥50% = +++),,+ (<20% = +),
652 (TLWYRAPEV; listed as Homo sapiens) [compound 652],,,,++++ (> = 70% = ++++)
513 (SLWPSPEQL; listed as Homo sapiens) [compound 513],″++″ (≥20% = ++),,,
584 (ALAEVAAMENV; listed as Homo sapiens) [compound 584],″+++″ (≥50% = +++),,,

# Now from value to substance, other results behind:
Peptide exchange (HLA-A*02:01),Substance,Wells positive [%] (CD8+ T cells),wells (CD8+ T cells; HLA class I peptides),"donors (CD8+ T cells; HLA class I peptides, percentage of positive donors)"
″+++″ (≥50% = +++),247 (VLLPNDLLEKV; listed as Homo sapiens) [compound 247],″+″ (<20% = +),,
″+++″ (≥50% = +++),443 (GLWEIENNPTV; listed as Homo sapiens) [compound 443],″+″ (<20% = +),,
″+++″ (≥50% = +++),2 (SLLEADPFL; listed as Homo sapiens) [compound 2],″+″ (<20% = +),,
″++″ (≥20% = ++),141 (YLDFSNNRL; listed as Homo sapiens) [compound 141],″+″ (<20% = +),,
″+++″ (≥50% = +++),489 (KMWEELPEVV; listed as Homo sapiens) [compound 489],″+″ (<20% = +),,
″+++″ (≥50% = +++),166 (YLNHLEPPV; listed as Homo sapiens) [compound 166],″++++″ (> = 70% = ++++),,
″+++″ (≥50% = +++),150 (RLWEEGEELEL; listed as Homo sapiens) [compound 150],″+″ (<20% = +),,
″++″ (≥20% = ++),499 (KIFDIDEAEEGV; listed as Homo sapiens) [compound 499],″+″ (<20% = +),,
″+++″ (≥50% = +++),118 (KLIDNNINV; listed as Homo sapiens) [compound 118],″+″ (<20% = +),,
″+++″ (≥50% = +++),384 (ILFANPNIFV; listed as Homo sapiens) [compound 384],″+″ (<20% = +),,
″+++″ (≥50% = +++),546 (VMIAGKVAVV; listed as Homo sapiens) [compound 546],,,
″+++″ (≥50% = +++),325 (FIMPATVADATAV; listed as Homo sapiens) [compound 325],,,
″+++″ (≥50% = +++),462 (KLAKQPETV; listed as Homo sapiens) [compound 462],,,
″+++″ (≥50% = +++),604 (SILDRDDIFV; listed as Homo sapiens) [compound 604],,,
